# Measurements reported in US10400249B2, “HPPD variants and methods of use” (priority 2014, dated 2019).
# Experiments:
# [1] = system: Pseudomonas fluorescens HPPD protein; experiment: OD assay: HPPD activity and pI50 from HPP remaining after derivatisation with DNP; type: biochemical; conditions: for Activity DeltaE/24 min μg Protein: HPPD enzyme activity of the clone; for tolerance (pI50) Cmpd. 2: inhibitor Cmpd. 2; for tolerance (pI50) DKN: inhibitor diketonitrile (DKN), negative log of molar concentration; for tolerance (pI50) MST: inhibitor mesotrione (MST); for tolerance (pI50) TBT: inhibitor tembotrione (TBT)
# Summary of the method: (§1)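 Purified Pseudomonas fluorescens HPPD, room temperature. OD assay: 50 mM Tris-HCl pH 7.8, 0.5 mM HPP, 10 mM ascorbate, catalase, 24 min, remaining HPP derivatised with DNP, read at 405 nm, inhibitor 5.0×10^−6 to 5.0×10^−4 M. HGD assay: 200 mM Tris-HCl pH 7.6, 600 μM HPP, 20 μM FeSO4, coupled HGA dioxygenase, initial rates at 318 nm, inhibitor ≤100 μM, time-course gives inhibition type; pI50 from 4-parameter fits.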
# [2] = system: Pseudomonas fluorescens HPPD protein; experiment: HGD assay: HPPD activity coupled to HGA dioxygenase, pI50 and type of inhibition (time-course); type: biochemical; conditions: for tolerance (pI50) Cmpd. 1: inhibitor Cmpd. 1; for tolerance (pI50) Cmpd. 1 / tolerance (pI50) Cmpd. 2 / tolerance (pI50) Cmpd. 3 / tolerance (pI50) Cmpd. 4 / tolerance (pI50) Cmpd. 5 / tolerance (pI50) DKN / tolerance (pI50) MST / tolerance (pI50) TBT: HGD assay; for tolerance (pI50) Cmpd. 2: inhibitor Cmpd. 2; for tolerance (pI50) Cmpd. 3: inhibitor Cmpd. 3; for tolerance (pI50) Cmpd. 4: inhibitor Cmpd. 4; for tolerance (pI50) Cmpd. 5: inhibitor Cmpd. 5; for tolerance (pI50) DKN: inhibitor diketonitrile (DKN); for tolerance (pI50) MST: inhibitor mesotrione (MST); for tolerance (pI50) TBT: inhibitor tembotrione (TBT)
# Summary of the method: as §1
# T0 soybean plants = experiment: greenhouse spray test of T0 soybean plants for tolerance to mesotrione; type: in vivo; conditions: mesotrione 3X field rate, 316 grams AI per hectare, seven days after treatment
# Procedure: T0 soybean plants expressing an HPPD inhibitor tolerant enzyme of the present invention, along with a gene conferring tolerance to glyphosate and a gene conferring tolerance to glufosinate or having a “plant expression cassette”, which includes only an HPPD inhibitor tolerant enzyme of the present invention, were tested for tolerance to mesotrione. Prior greenhouse trials with the transgenic plants, soy transformants were routinely analyzed for the expression and presence of the transgenes using the ELISA protein detection method (see detailed description under item D and H). Only plants recovering in the selection media and having a detectable HPPD transgene protein expression were used for the herbicide tolerance analysis. A DeVries Tracker Sprayer was calibrated prior to each spraying. The chemical formulation used for mesotrione (MST) testing was Callisto® 4 SC formulation supplemented with ammonium sulfate and methylated rape seed oil (Actirob). Spray tests were conducted using 3× the field rate (equivalent to 9 fluid ounce per acre of the same herbicide formulation that containing 40% the active ingredient (AI), mesotrione), which equals 316 grams AI per hectare. Tolerance was evaluated one week after spraying. […] A tolerance rating of “0” was assigned to plants that their shoot apexes, newly emerged trifoliates and some axillary buds were completely bleached. A rating of “1” was assigned to plants having slight tolerance, i.e., the newest plant shoot tissues had some green leaves and are not bleached completely. A rating of “2” was assigned to plants showing moderate tolerance, i.e., more than 50% of the leaf area of the top three trifoliates showing no chlorosis or bleaching damage. A rating of “3” was assigned to plants showing nearly perfect tolerance, i.e., less than 10% of the leaf area showing chlorosis or very slight bleaching.
# [3] = HT-single plant expression cassette
# [4] = HT-triple plant expression cassette
Molecule,Activity DeltaE/24 min μg Protein [1] [DeltaE/24 min μg Protein],tolerance (pI50) Cmpd. 2 [1],tolerance (pI50) DKN [1],tolerance (pI50) MST [1],tolerance (pI50) TBT [1],"mechanism of inhibition by diketonitrile (DKN), time-course of inhibition [2]","mechanism of inhibition by mesotrione (MST), time-course of inhibition [2]","mechanism of inhibition by tembotrione (TBT), time-course of inhibition [2]",tolerance (pI50) Cmpd. 1 [2],tolerance (pI50) Cmpd. 2 [2],tolerance (pI50) Cmpd. 3 [2],tolerance (pI50) Cmpd. 4 [2],tolerance (pI50) Cmpd. 5 [2],tolerance (pI50) DKN [2],tolerance (pI50) MST [2],tolerance (pI50) TBT [2],Number of T0 soybean plants with herbicide tolerance rating 0 (completely bleached) (T0 soybean plants; [3]),Number of T0 soybean plants with herbicide tolerance rating 1 (slight tolerance) (T0 soybean plants; [3]),Number of T0 soybean plants with herbicide tolerance rating 2 (moderate tolerance) (T0 soybean plants; [3]),Number of T0 soybean plants with herbicide tolerance rating 3 (nearly perfect tolerance) (T0 soybean plants; [3]),other results
"FLP136: PfHPPD variant P215L, E335P, G336F (protein, HPPD variant - FLP136, PfHPPD variant P215L, E335P, G336F) MADLYENPMGLMGFEFIEFASPTPGTLEPIFEIMGFTKVATHRSKNVHLYRQGEINLILNNEPNSIASYFAAEHGPSVCGMAFRVKDSQKAYNRALELGAQPIHIDTGPMELNLPAIKGIGGAPLYLIDRFGEGSSIYDIDFVYLEGVERNPVGAGLKVIDHLTHNVYRGRMVYWANFYEKLFNFREARYFDIKGEYTGLTSKAMSAPDGMIRILLNEESSKGAGQIEEFLMQFNGEGIQHVAFLTDDLVKTWDALKKIGMRFMTAPPDTYYEMLEGRLPDHGEPVDQLQARGILLDGSSVEGDKRLLLQIFSETLMGPVFFEFIQRKGDDGFGPFNFKALFESIERDQVRRGVLTAD",0.09,4.8,2.6,3.3,4.7,fully reversible inhibitors,fully reversible inhibitors,fully reversible inhibitors,5.6,5.9,5.6,6.0,5.6,4.0,4.5,5.3,4,10,41,20,Number of T0 soybean plants with herbicide tolerance rating 0 (completely bleached) (T0 soybean plants; [4]): 4; Number of T0 soybean plants with herbicide tolerance rating 1 (slight tolerance) (T0 soybean plants; [4]): 17; Number of T0 soybean plants with herbicide tolerance rating 2 (moderate tolerance) (T0 soybean plants; [4]): 33; Number of T0 soybean plants with herbicide tolerance rating 3 (nearly perfect tolerance) (T0 soybean plants; [4]): 19
"FLP202: PfHPPD variant P215L, E335P, G336F, A340E (protein, HPPD variant - FLP202, PfHPPD variant P215L, E335P, G336F, A340E) MADLYENPMGLMGFEFIEFASPTPGTLEPIFEIMGFTKVATHRSKNVHLYRQGEINLILNNEPNSIASYFAAEHGPSVCGMAFRVKDSQKAYNRALELGAQPIHIDTGPMELNLPAIKGIGGAPLYLIDRFGEGSSIYDIDFVYLEGVERNPVGAGLKVIDHLTHNVYRGRMVYWANFYEKLFNFREARYFDIKGEYTGLTSKAMSAPDGMIRILLNEESSKGAGQIEEFLMQFNGEGIQHVAFLTDDLVKTWDALKKIGMRFMTAPPDTYYEMLEGRLPDHGEPVDQLQARGILLDGSSVEGDKRLLLQIFSETLMGPVFFEFIQRKGDDGFGPFNFKELFESIERDQVRRGVLTAD",0.09,4.5,<2.5,<2.5,3.6,fully reversible inhibitors,fully reversible inhibitors,fully reversible inhibitors,4.1,4.7,4.3,5.7,4.3,<4,<4,4.2,2,21,37,18,Number of T0 soybean plants with herbicide tolerance rating 0 (completely bleached) (T0 soybean plants; [4]): 7; Number of T0 soybean plants with herbicide tolerance rating 1 (slight tolerance) (T0 soybean plants; [4]): 8; Number of T0 soybean plants with herbicide tolerance rating 2 (moderate tolerance) (T0 soybean plants; [4]): 10; Number of T0 soybean plants with herbicide tolerance rating 3 (nearly perfect tolerance) (T0 soybean plants; [4]): 14
